Assay results reported in CN111253486A (ZAI LAB SHANGHAI CO LTD, dated 2020).

B1: murine anti-PD-1 antibody 31G1E10 (antibody, V domains shown)
VH: EVKLVESGGGLVKPGGSLKLSCAASGFTFSSYGMSWVRQTPEKRLEWVATISGGGRDTYYPDSVKGRFTISRDNAKNNLYLQMNNLRSEDTALYYCARQRDSAWFAHWGQGTRVTVSA
VL: not shown
B2: murine anti-PD-1 antibody 56B3C11 (antibody, V domains shown)
VH: EVMLVESGGGLVQPGGSLKLSCAASGFTFNSYTMSWVRQTPEKRLEWVAYISFGGGDTYYPDTVKGRFTISRDNAKNTLYLQMNSLKSEDTAMYYCARQGNYEGAPFAYWGQGTLVTVSA
VL: DIQMTQTTSSLSASLGDRVTISCRASQDISNFLNWYQLKPDGTIKLLIYYTSRLHSGVPSRFSGSGSGTDYSLTITDLEQEDIATYLCQQGDMIPWTFGGGTKLEIK

Biological target: T1, human PD-1-his (recombinant human PD-1 extracellular domain with C-terminal polyhistidine tag) (human, UniProt Q15116 25-170)
T1 construct: extracellular domain; also called 人PD-1-his; hPD-1蛋白
Assay: SPR (Biacore 8K), antibody captured, antigen injected

T1 sequence (Q15116 25-170): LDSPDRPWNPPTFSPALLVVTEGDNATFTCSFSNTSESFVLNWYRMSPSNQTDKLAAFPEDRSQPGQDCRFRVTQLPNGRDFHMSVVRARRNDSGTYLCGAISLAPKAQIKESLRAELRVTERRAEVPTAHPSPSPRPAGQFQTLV

Binder	Kd [nM]	koff [s⁻¹]	kon [M⁻¹ s⁻¹]
B1	1.16	0.000198	171000
B2	2.43	0.000295	122000
